# Source: EP1169642B1
# B1: recombinant dentin matrix protein 1 (rDMP1) (ligand)
# chain: LPVTRYQNNESEDSEEWKGHLAQAPTPPLESSESSEGSKVSSEEQANEDPSDSTQSEEGLGSDDHQYIYRLAGGFSRSTGKGGDDKDDDEDDSGDDTFGDDDSGPGPKDRQEGGNSRLGSDEDSDDTIQASEESAPQGQDSAQDTTSESRELDNEDRVDSKPEGGDSTQESESEEHWVGGGSDGESSHGDGSELDDEGMQSDDPESIRSERGNSRMNSAGMKSKESGENSEQANTQDSGGSQLLEHPSRKIFRKSRISEEDDRSELDDNNTMEEVKSDSTENSNSRDTGLSQPRRDSKGDSQEDSKENLSQEESQNVDGPSSESSQEANLSSQENSSESQEEVVSESRGDNPDPTTSYVEDQEDSDSSEEDSSHTLSHSKSESREEQADSESSESLNFSEESPESPEDENSSSQEGLQSHSSSAESQSEESHSEEDDSDSQDSSRSKEDSNSTESKSSSEEDGQLKNIEIESRKLTVDAYHNKPIGDQDDNDCQDGY
# Target: purified human complement Factor H (human) (UniProt P08603)
# Assay: steady state fluorescence titration of purified human Factor H
# Chain of purified human complement Factor H (human) (P08603 19-1231 limits assumed): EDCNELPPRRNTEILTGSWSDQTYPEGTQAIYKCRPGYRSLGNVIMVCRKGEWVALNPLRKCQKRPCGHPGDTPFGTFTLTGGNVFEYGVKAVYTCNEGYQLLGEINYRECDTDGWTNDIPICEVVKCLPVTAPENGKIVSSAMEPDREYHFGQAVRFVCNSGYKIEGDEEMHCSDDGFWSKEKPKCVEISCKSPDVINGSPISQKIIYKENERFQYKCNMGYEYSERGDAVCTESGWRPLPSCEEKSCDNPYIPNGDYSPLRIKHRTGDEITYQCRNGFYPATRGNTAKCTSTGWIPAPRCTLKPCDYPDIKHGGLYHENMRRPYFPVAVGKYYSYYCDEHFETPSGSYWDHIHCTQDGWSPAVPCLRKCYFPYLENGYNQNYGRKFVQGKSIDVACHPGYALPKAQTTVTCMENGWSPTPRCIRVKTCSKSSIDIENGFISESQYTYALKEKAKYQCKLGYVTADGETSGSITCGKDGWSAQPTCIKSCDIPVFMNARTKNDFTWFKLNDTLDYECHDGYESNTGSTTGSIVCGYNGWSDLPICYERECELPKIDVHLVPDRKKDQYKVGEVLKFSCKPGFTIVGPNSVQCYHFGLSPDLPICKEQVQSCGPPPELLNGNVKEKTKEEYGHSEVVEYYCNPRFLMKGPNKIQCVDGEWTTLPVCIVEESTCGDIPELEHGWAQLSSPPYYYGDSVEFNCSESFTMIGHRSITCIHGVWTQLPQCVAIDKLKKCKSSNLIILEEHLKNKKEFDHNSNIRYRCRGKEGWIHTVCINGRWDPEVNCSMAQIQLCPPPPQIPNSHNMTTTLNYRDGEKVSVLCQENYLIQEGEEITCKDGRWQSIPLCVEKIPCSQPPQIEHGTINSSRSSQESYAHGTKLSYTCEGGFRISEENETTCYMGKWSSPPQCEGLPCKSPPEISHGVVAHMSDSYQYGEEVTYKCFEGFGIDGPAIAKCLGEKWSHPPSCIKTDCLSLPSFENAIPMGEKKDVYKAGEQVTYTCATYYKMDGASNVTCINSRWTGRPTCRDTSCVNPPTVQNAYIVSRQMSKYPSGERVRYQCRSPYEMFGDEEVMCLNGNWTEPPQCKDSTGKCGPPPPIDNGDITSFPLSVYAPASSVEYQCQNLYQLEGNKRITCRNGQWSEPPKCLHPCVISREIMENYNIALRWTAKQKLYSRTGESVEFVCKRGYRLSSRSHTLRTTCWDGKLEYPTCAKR
binder,measurement,value
B1,stoichiometry (DMP1:Factor H),1 molar ratio
